Results: article PMC9881148

Key:
[1] = system: histone H1 (Homo sapiens); assay: FCS; conditions: poly(ADP-ribose), 50 mM Tris pH 7.4, 150 mM NaCl, 3 mM DTT, 0.05% Tween20, 1 h room temperature, 10 nM nucleic acid
[2] = biological target: p53WT (Homo sapiens) (UniProt P04637); assay: FCS; conditions: poly(ADP-ribose), 50 mM Tris pH 7.4, 150 mM NaCl, 3 mM DTT, 0.05% Tween20, 1 h room temperature, 10 nM nucleic acid
Sequence of p53WT (Homo sapiens) (P04637 whole entry): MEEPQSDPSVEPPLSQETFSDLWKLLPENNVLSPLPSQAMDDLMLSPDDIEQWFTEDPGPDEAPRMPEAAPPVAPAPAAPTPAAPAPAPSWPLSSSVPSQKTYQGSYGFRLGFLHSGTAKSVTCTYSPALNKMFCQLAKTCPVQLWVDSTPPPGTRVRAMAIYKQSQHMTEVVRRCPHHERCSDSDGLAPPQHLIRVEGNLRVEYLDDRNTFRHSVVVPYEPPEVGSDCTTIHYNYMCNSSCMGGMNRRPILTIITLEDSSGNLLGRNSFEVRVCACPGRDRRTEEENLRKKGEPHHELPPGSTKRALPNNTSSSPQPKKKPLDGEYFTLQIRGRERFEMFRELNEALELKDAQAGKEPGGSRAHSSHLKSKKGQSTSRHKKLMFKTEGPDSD

## PARWT 20-mer
[1]; also printed as 4 nM in the comparison with PARHB, linear
  Kd: 0.005 µM

## PARWT 50-mer
[2]; first binding event, no saturation up to 5 uM, linear
  Kd: 0.008 µM

## PARWT 40-mer
[2]; linear
  Kd: 0.007 µM

## PARHB 50-mer
[2]; hyperbranched
  Kd: 0.03 µM

## PARHB 40-mer
[2]; hyperbranched
  Kd: 0.041 µM

## PARHB 30-mer
[2]; hyperbranched
  Kd: 0.099 µM

## PARHB 20-mer
[1]; hyperbranched
  Kd: 0.008 µM

## PARWT 30-mer
[2]; linear
  Kd: 0.028 µM
